Data on five molecules can be found in publication PMC5387307, “Diversification of the kinetic properties of yeast NADP‐glutamate‐dehydrogenase isozymes proceeds independently of their evolutionary origin” (MicrobiologyOpen, 2016).

Data set [1] deals with T1, LkGdh1.
T1 construct: gene GDH1; full-length ORF in pET-28a(+), His-tagged, expressed in E. coli BL21, Ni-NTA purified; monomer 54 kD apparent; glutamate IC50: native enzyme in WT extract
Kind of data set: NADPH absorbance at […] nm, reductive amination. Particulars: 100 mmol/L Tris pH 7.5, 30°C. In kind it is biochemical, Lachancea kluyveri.

Substrate in data set [2]: N
Kind of data set: purified protein. To be noted: 8 mmol/L α-KG, 250 μmol/L NADPH, 100 mmol/L Tris pH 7.5, 30°C.

Substrate in data set [3]: O=C(O)CCC(=O)C(=O)O
Kind of data set: purified protein. In kind it is biochemical, Saccharomyces cerevisiae. Particulars: 250 μmol/L NADPH, 100 mmol/L ammonium chloride, 100 mmol/L Tris pH 7.5, 30°C.

Substrate in data set [4]: NC(=O)C1=CN([C@@H]2O[C@H](COP(=O)(O)OP(=O)(O)OC[C@H]3O[C@@H](n4cnc5c(N)ncnc54)[C@H](OP(=O)(O)O)[C@@H]3O)[C@@H](O)[C@H]2O)C=CC1
Kind of data set: purified protein. In kind it is biochemical, Saccharomyces cerevisiae. To be noted: 8 mmol/L α-KG, 100 mmol/L ammonium chloride, 100 mmol/L Tris pH 7.5, 30°C.

By kcat is commonly meant the number of substrate molecules converted per active site and unit of time at saturation.

Like-named read-outs stand apart in the source and are kept apart here.

On to `O=C(O)CCC(=O)C(=O)O` [α-KG], for which, in data set [1] (250 μmol/L NADPH, 100 mmol/L ammonium chloride, read-out: pH 7.5 / K m-α-KG), the Km came out at 460 µM.

For `N` [NH4+], the Km in data set [1] (8 mmol/L α-KG, 250 μmol/L NADPH, read-out: pH 7.5 / K m-NH4+) is 7400 µM.

Consider `NC(=O)C1=CN([C@@H]2O[C@H](COP(=O)(O)OP(=O)(O)OC[C@H]3O[C@@H](n4cnc5c(N)ncnc54)[C@H](OP(=O)(O)O)[C@@H]3O)[C@@H](O)[C@H]2O)C=CC1` [NADPH], for which the Km in data set [1] (8 mmol/L α-KG, 100 mmol/L ammonium chloride, read-out: pH 7.5 / K m-NADPH) was 46 µM.

B1: ScGdh3 (Saccharomyces cerevisiae S288C) (protein)
chain: MTSEPEFQQAYDEIVSSVEDSKIFEKFPQYKKVLPIVSVPERIIQFRVTWENDNGEQEVAQGYRVQFNSAKGPYKGGLRFHPSVNLSILKFLGFEQIFKNALTGLDMGGGKGGLCVDLKGKSDNEIRRICYAFMRELSRHIGKDTDVPAGDIGVGGREIGYLFGAYRSYKNSWEGVLTGKGLNWGGSLIRPEATGFGLVYYTQAMIDYATNGKESFEGKRVTISGSGNVAQYAALKVIELGGIVVSLSDSKGCIISETGITSEQIHDIASAKIRFKSLEEIVDEYSTFSESKMKYVAGARPWTHVSNVDIALPCATQNEVSGDEAKALVASGVKFVAEGANMGSTPEAISVFETARSTATNAKDAVWFGPPKAANLGGVAVSGLEMAQNSQKVTWTAERVDQELKKIMINCFNDCIQAAQEYSTEKNTNTLPSLVKGANIASFVMVADAMLDQGDVF
notes: full-length ORF in pET-28a(+), His-tagged, expressed in E. coli BL21, Ni-NTA purified; monomer 55 kD apparent; glutamate IC50: native enzyme in Scgdh1 deletion strain extract
As for B1, the results for the Km in data set [2], in data set [3] and in data set [4] were 6900 µM, 400 µM and 42 µM, respectively. The turnover number (kcat) in data set [2], in data set [3] and in data set [4] was 14 s⁻¹ in each case.

B2: ScGdh1 (Saccharomyces cerevisiae S288C) (protein)
chain: SEPEFQQAYEEVVSSLEDSTLFEQHPEYRKVLPIVSVPERIIQFRVTWENDKGEQEVAQGYRVQYNSAKGPYKGGLRFHPSVNLSILKFLGFEQIFKNSLTGLDMGGGKGGLCVDLKGRSNNEIRRICYAFMRELSRHIGQDTDVPAGDIGVGGREIGYLFGAYRSYKNSWEGVLTGKGLNWGGSLIRPEATGYGLVYYTQAMIDYATNGKESFEGKRVTISGSGNVAQYAALKVIELGGTVVSLSDSKGCIISETGITSEQVADISSAKVNFKSLEQIVNEYSTFSENKVQYIAGARPWTHVQKVDIALPCATQNEVSGEEAKALVAQGVKFIAEGSNMGSTPEAIAVFETARSTATGPSEAVWYGPPKAANLGGVAVSGLEMAQNSQRITWTSERVDQELKRIMINCFNECIDYAKKYTKDGKVLPSLVKGANIASFIKVSDAMFDQGDVF
notes: full-length ORF in pET-28a(+), His-tagged, expressed in E. coli BL21, Ni-NTA purified; monomer 53 kD apparent
In the case of B2, the Km in data set [2] was 8600 µM; in data set [3], 370 µM; in data set [4] it was 45 µM. The kcat in data set [2], in data set [3] and in data set [4] was 13 s⁻¹ throughout.
